Source: the nanobody polyreactivity screen of Harvey et al. (2022)

Assay: yeast display, Sf9 membrane polyspecificity reagent, FACS + sequencing; frameworks hold sequencing errors
In short: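 Sorting gates, low and high (top ~1%), were placed on anti-HA fluorescence to track expression and on streptavidin fluorescence to track reagent binding. A clone's polyreactivity label is taken from the gate it came out of. The reagent was 10% biotinylated, detergent-solubilized Sf9 membrane, applied for 1 hour at 4 °C to galactose-induced yeast display cells.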

Sequence	polyreactivity (PSR sort gate)
QVQLVETGGGLVQARGSLRLSCAASGRTFYKYAMGWYIQAPGKERELVAAISSDGTTYYADSVKGRFTISRDNAKNTVYLQMNRLKPVDTAVYYFAADPPPPFLYVSVQEYDYWGQGTQVTVSS	low polyreactivity
QVQLVETGGGLVQARGSLRLSSAASGFIFDENAMGWYRQAPGKERELVAAITSGGGSTYYADSVKGRFTISRDNAKNTVYFQMNSQNPEDTAVYYCNAVPTQHDEFDYWGQGTQVTVSS	low polyreactivity
QVQLVETGGRLVQAGGSLRVSCAASGITFECYAMGWSRQATGKERELVAAIRSSGTSTYYADSVKGRFTISRDNAKNTVYLQMMSLKPEDTAVYYCNLARSSSRYDYWGQGTQVTVSS	low polyreactivity
QVQLVETGPGLVQAGGSLRLSCAASGSIFGTYAMGWYRQAPGKERELVAAITGNGGRTYYADSVKGRFTISRDNAKNTVFLQMNSLKPEDTAVYYCAKATSRRGFYDWGPGTQVTVSS	high polyreactivity
QVQLVETGVGLVQAGGSLRLSCAASGRIFLVYAMGWYRQAPGKERELVAAISWRGGRTYYADSVKGRFTISRDNAKNTVYLQMNSLIPEDTAVYYCAAASKYSQFEYDYWGQGTQVTVSS	high polyreactivity
QVQLVETGVGLVQAGGSLRLSCAASGSTFPGYAMGWYRQAPGKERELVAAISASGGSTYYADSVKGRFTISRDIAKNTVYLQMNSLKPEDTEVYYCAKVLSRGASAHDYWGLGTQVTVSS	low polyreactivity
QVQLVETRGGLVQAGGSLRLSCAASGSIFLQNAMGWYRQAPGKERELVAAITNGGSTNYADSVKGRFTISRDNAKNTVYLQMNSLKPEDTAVYYCAAYPLYTGSYDRGGYWGQGTQVTVSS	low polyreactivity
QVQLVETVGGLDQAGGSLLLSCAASGRIFWENALGWYRQAPGKERELVAAISDSVVITYYADSVKGRFTISRDNAKNTVYLQMNSLKPEDTAVYDCAADKRGSVYLSSFWMDYWGQGTQVTVSS	low polyreactivity
QVQLVEYGGGLVQAGGSLRLSCAASGRIFGYYTMGWYRQAPRKERELVAAITSSGGRTYYADSVKGRFTISRDNAKNTVYLQMNSLKPEDTAVYYCNKVTFGYAYWRYDGYDYWGQGTQVTVSS	low polyreactivity
QVQLVKSGGGLVQAGGSLRLSCAASGRIFVGYVMGWYIQAPGKARELVAAIDSGRRTNYADSVKGRFTISRDNAKNTVYLQINSLKPEDTAVYYCNREAAHGSLRWTEMEYWGQGTQVTVSS	low polyreactivity
QVQLVQSGGGIVQEGGSLRLSCAASGSTFYRNTMGWYRQAPGKERELVAAISRTGASTHYADSVKGRFTISRDNAKNTVYFQMNSLKPEDTAVYYCNAVPAIGKYYGGGYWGQGTQVTVSS	high polyreactivity
QVQLVQSGGGLVQAGGRLRLSCAASGRIFGFYAMGWYRQAPGKERELVAAITSTGRTYYADSVKGRFTISRDNAKNTVYLQMNSLKPEDTAVYYCAAGYGRADSGWVRMNYWGQGTQVTVSS	high polyreactivity
QVQLVQSGGGLVQAGGSLRLSCAASGITFIHNAMGWYRQAPGKERELVAAITTSDGSTYYADSVKGRFTISRDNAKYTVYFQMNSLTPEDTAVYYCAARGRHSGYYSFPYYYWGQGTQVTVSS	low polyreactivity
QVQLVQSGGGLVQAGGSLRLSCAASGRTIWANAMGWYRQAPGKESELVAAITTSGGSTNYADSVKGRFTISRDNAKNTVYLQMNSLKPEDTAVYYCNADPTYHVVNGVGYWGQGTQVTVSS	low polyreactivity
QVQLVQSGGGLVQAGGSLRLSCAASGRTIYSKAMGWYRQAPGKERELVAAITSTDDSTYYADSVKGRFTISRDNAKNTVYLQMNSLKPEDTAVYYCNTDGLIAIRGLWWVEYDYWGQGTQVTVSS	low polyreactivity
QVQLVQSGGGLVQAGGSLRLSCAASGRTLWSYVMGWYRQAPGKERELVAAITSGGTTYYADSVKGRFTISRDNAKNTVYLQMNSLKPEDTAVYYCNVYTKFVYAYDYWGQGTQVTVSS	high polyreactivity
QVQLVQSGGGLVQAGGSLRLSCAASGSIFAVYGMGWNRQAPGKERELVASISTGVSTNYADSVKGRFTISRDNAKNTVYLQRHSLKPEDTAVYYCAKTIYKSRVSYGSWGQGTQVTVSS	low polyreactivity
QVQLVQSGGGLVQAGGSLRLSCAPSGSISTPYTMGWYRQAPGKERELVAAISWIGDTTSYADSVKGRYTISRDNAKNTVYLQMKSLKPEDTAVYYCDADYLWYNYAGQVDQDYDYWGQGTQVTVSS	low polyreactivity
QVQLVQSGGGLVQAGGSLRLSSAASGRIFATNAMGWYRQAPGKERELVAAITTSGGSTYYADSVKGRFTISRDNAKNTVYLHLNSLKPEDTAVYYCAARRGPNSYRWRMGYWGHGTQVTVSS	high polyreactivity
QVQLVQSGGGLVQAGGSLSLSCAASVFIFYYYDMGWYIQAPGKERELVAAISGRDGSTYYADSVKGRFTISRDNAKNTVYLQMNSLKPEDTAVYYCAAANRSRSIGSQYGYWGQGTQVTVSS	high polyreactivity
QVQLVQSGRGLVHAGCSLRLSCAASGRIYAGNAMGLYRQPPGKERELFATITSGGSTYYADSVKGRFTISRDNAKNTVYLQMNSLKPEDTAVYYCNAVNYWVKSRFSLTWEFAVVYWGQGTQVTVSS	low polyreactivity
QVQLVQSRGGLVQAGGSLRISCAASGRIFNPNAMRWDRQAPVKQRELVAAITRGGSTNYADSVKGRLTISRDNAKNTVYLQMISLQPEVSAVLYCAADFKTWYCDFDYCGQGTQVTVSS	high polyreactivity

Sequence	polyreactivity (PSR sort gate)
QVQLVQSRGVLVQAGGSLRLSCAASGSIFKYNAMGWYRQAPGKERELVAAITYSGGSTYYADSVKGRFTISRDNAKNTVYLQMNSLKPEDTAVYYCNAYRRFSAFDYWGQGTQVTVSS	high polyreactivity
QVQLVSGGGLVQAGGSLRLSCAASGRIFVSYAMGWYRQAPGKERELVADISSDGSTNYADSVKGRFTISRDNAKNTVYLQMNSLKPEDTAVYYCAVEVVRVYRYDYWGQGTQVTVSS	low polyreactivity
QVQLVSSGGGLVQAGGSLSLSCAASGRTFCINAMGWYRQAPGKERELVAAIRTGGSTYYADSVKGRFTISRDNAKNTVYLQMNSLKPEDTAVYYCAAVLYHNRKTEYTYGYWGQGTQVTVSS	high polyreactivity
QVQLVVSGGGLVQAAGSLRLSCAASGLTFANYVMGWYRQAPGKERELVASISISGGSTYYADSEKGRFTISRDNAKNTVYLQMNSLKPEDTAVYYCAASFVSSYQYAYWGQVTQVTVSS	high polyreactivity
QVQLVVSGGGLVQAGGSLRLSCAASGSTFYAYAMGWYRQAPGKERELVARIRWRGGRTYYADSVKGRFTISRDNAKNTVYLRMNSLKPEDTAVYYCNRGYYSYYGRYYYWGQGTQVTLSS	high polyreactivity
QVQLVVSGGGLVQAGGSLRLSCAASGYTFQGYAMGWYRQAPGKERELVAGISRSGGRTYYADSVKGRFTISRDNAKNTVYLQMNSLKPEDTAVYYCASTYPGAIRDYWGQGTQVTVSS	high polyreactivity
QVQLVVSGGGLVQAGGSLRLSWAASGSIFERYAMGLYRQAPGKERELVARISRSGTSTYYADSVKGRFTISRDNAKNSVYDQMNSLQPEDTAVYYCNATGSRYSGYQRCHYWRYDYLGQGTQVTVSS	high polyreactivity
QVQLVVSGGGLVQAGGTLRLSCAASGSILSDNGMGWYRQAPGKERELVASIRTGDITKYADCVKGRFTISRDNAKNTVDLQMTSLKPEDTAVYYCAAAGRVQYTRKYYGWRNRNDYWGQGTQVTVSS	low polyreactivity
QVQMQESGGGLVQAGGSLRLSCAASCTISQEDWMGWYRQAPGKEREFVAAIGLGSNTNYADSLKGRFTISRDNAKNTVYLQMNSLKPEDTAVYYCAVSVWQYSDHVFRGQGTQVTVSS	low polyreactivity
QVQMQESGGGLVQAGGSLRLSCAASGSISRYYDMGWYRQAPGKEREFVAGISGGAITYYADSVKGRFTISRDNAKNSVYLQMNSLNREDTAVYYCAADTGVYQYHSYWGQGTQVTVSS	low polyreactivity
QVQPQESGGGPVQACGSLRLSCAASGNILDADILGWYRLVPGIERELVASITDGGSTNYAESVKGRFTIRRDNAKNTVYLQMNSLIPEDTAVYYCAVWSLGRWRHYYWGQGTQVTVSS	low polyreactivity
QVQQQESGGGLVQAGGSLRLSCAASGSISRLDYMGWYRQATGKERELVAAIDNGSTTYYADSVKGRLTISRDNAKYTVYLQMNSLKPEDNAVYFCAAVRGRGGTHAYWGQGTQVTVSG	low polyreactivity
QVQQQESGGGLVQAGGSLRLSCAASGYISVVIGMGWYRQSPGKERELVASIAYGAITYYTDSVKGRFTISRDYAKNTEYLQMNSLKAEDTAVYYCAADQPPLAYHWYWGQGTQATVSS	high polyreactivity
QVQQQESGGVLVHAGGSLRLSCAASGTISPLPAMGWYRQAPGKEREFVAGIDTGAISNYADSVKGRFTISRDNAKNTVYLQMNSLKPEDTAVYYCAVFPAAYEYYVRYYTYWGQGTQVTVSS	low polyreactivity
QVQQQESRGGLVQAGGSLRLSCAASCTISQEDWMGWYRQAPGKEREFVAAIGLGSNTNYADSLKGRFTISRDNAKNTVYLQMNSLKPEDTAVYYCAVSVWQYSDHVYRGQGTQVTVSS	low polyreactivity
QVQREESGGGLVQAGGSLRLSCAASGSTFDAYAMGWYRQAPGKERELVAAITWSGGSTYYADSVKGRFTISRDNAKNTVYLQMNSLKPEATAVYYCAADKLGELDYWGQGTQVTVSS	low polyreactivity
QVQRLESGGGLVKAGGSLRLSCSASGIILPYYVMGWYRQAPGKEREFVADITWSGGSTYYADSVKGRFTISRDNAKNTVYLQMNSLKPEDTAVYYCAAEGPWYYFFDMDYWGQGTQVTVSS	high polyreactivity
QVQRLESVGRLVQAGGSLRLSSAPSGIIFRGYVMGWYIQARGKESELVAAITSSTGSTYYADSVKGRFTISRENAKNTGYLLMNILKPEDTAVYYCNVDYYVPNDGYEYWGQGTQVTVSS	low polyreactivity
QVQRVEEGRGLVQAGGTLRISCAASGSIFNQYAMGWYRHAPGQERELVAAITASGGSTYYAVSVKGRFTISRDNAKKTVYLQMNCLKPEDPAVYYCAKVELRDSAELGSDEYDYWGQGTQVTVSS	low polyreactivity
QVQRVESAGGLVQAGGSLRISCAASGSTLYKYAMGWYRQAPGKERELVAAISWSGSSTYYADSVKGRFTISRDNAKNTVYLQMNSLKPVDTAVYYCAAYPRPYIVYTDGYVWYEFDYWGQGTQVTVSS	low polyreactivity
QVQRVESCGGLVQAGGSLRLSCAASGSIFTQYTMGWYRQEPAKERELVAAISRSGGRTYYADSVKGRFTISRDNAKNTVYLQMNSLKPEDTAVYYCATRALYWRYGYDYWGQGTQVTVSS	high polyreactivity
